Data taken from the supplement of paper PMC9170038.

What follows are sequences tested on K4 kissing-loop RNA reporter (assay: apparent KD of K4 kissing-loop reporter; higher = weaker reporter binding). Details: Eterna round: R107; input ligand: FMN 200 uM.
Procedure: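 RNA-MaP round R107: designed RNA switches with theophylline, tryptophan, arginine or FMN aptamers are transcribed on-chip within common flanks. They are titrated with a labelled K4 kissing-loop RNA reporter in RNA-MaP buffer (100 mM Tris pH 7.5, 80 mM KCl, 4 mM MgCl2), without ligand or with the indicated ligand. Median apparent KD per design.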
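Also: bound reporter read as fluorescence of individual clusters on recovered sequencing chips by microscopy, with normalized cluster intensities fitted with a binding model.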

Sequence | apparent KD of K4 kissing-loop reporter [nM]
GCUAAGGAGUGAUGUUCCAAGUGAUGUUAACGAGGACCGGUACGGCCGCCACUCGAUACGGCCGGAAAGUAAGAUAAACUACAGC [Same State - Tryptophan A (Freestyle 5)] | 98.6
UGUGAUGAGUAGAGUGAUGUUUUGAAGGAUACCAGAGUGUUGUUAUUCCCUUGGCAGCUUGAGUGAUGUUUGAUGUUGUUGUAGU [zizmullin] | 303
CGAGUCCUGAGGAGUGAUGUUCCUCGGCCACGAGGACCGGUACGGCCGCCACUCGUUACUCGGGCUUAGCAGCAAGCACUAAGCU [Acesote] | 348
GUUACGCAUGGAAGGAGCGCACUCCGAUUGGUCGACACAGUGAUGUUGUGGUUCGUUCGAAUGCAGGUAGGUCGCCAUGUGUAAC [Ex Arginine B K4 18] | 165
UGGAGUUGACGAAAAGUCAACUCCCGAGAAGGAGCGGACGAAAGUCCAGGUAGGUCGCUCGCUACCAGUGAUGUUGGUACUCAAA | 127
UGUAAGCGCGUAGAUACCAGCAGACGAGUGAUGUUCAAAAGAUUAAGGAAAAGAAAGUAAUGCCCUUGGCAGCUAAUCAUAAGCG [whbob_Ex_Theo_B_sa92] | 243
AUAUGCUUAGCGGCCGCCACUCCAAUUGGCCGAAAGGCCUGAUACCGAGUGAUGUUCGGUUGGAGGAGGACCGGGCUAGGCGUAU [#2 Exclusion - Tryptophan B Attempt #1 (HarryS)] | 168
GGAUAGGACAGAGGAUAUGGUAGCUAGGCAAGAAUAACUUGUCUAGCAUCCAUGAGGAGUGAUGUUCCAGAAGGCUGUCCUAUCG [FmnBX 5 - #SwitchBubble #StaticStem] | 235
AAUUUAUAUUUAUUCUUUAAUUGUUCAGAAGGAGCGUGAAUUAUCACAGGUAGGUCGCUGAGCUAGUGAUGUUAGCUAUAUACUA [JR_ExcArginiA_Sub008] | 65.5
GGUAGCAUGGCGGCCGCCACUCUUCAUUAGUGAUGUUAAUGCCGAGUGCGCUAACUCCAACUGGAGAGGACCGGGCCAUGCUACC | 182
GGGAAUUACGGAGGAUAUGCACUGAGGAGGAGAAUAUAGUGAUGUUAUAUAAGAGGAAGGAGAAGAGUAGAAGGCCGUGGAAAGG [SSFMNB.D] | 226
AGCUCAGAGUGACUCGAUAAGAGUCACAAACGAGGACCGGUACGGCCGCCACUCGAAAUAAGGAGAGUGAUGUUCUCGCUGAGCA [FiskerMod 8 - Jieux - Same State Tryptophan A] | 454
CCUAUCUCAUACGAUACCAGUCAAAUAAAUUAUAACGAGUGAUGUUCGAAAUGCCAUCACGACCCUUGGCAGCGUAUGGGAUAGG [Ex Theophylline B K4 1] | 304
AAAUAAAUCGGAGGAUAUCCUUCCCACGUCGAAGUACCGUGCUUGAUGGAGUGAUGUUCGAUCAGAGGAGAAGGCCGAUAAAUAA [Same State FMN B GF20] | 1040
GGUGUUGUUUGUGCUGUUUUCUUUGUUUCUCGAGGACCGGUACGGCCGCCACUCGAGUGAUGUUUGGGUAGCGAUGUUUGUUAGU [Bdazzled - #2 - Exc. Tryptophan A] | 463
ACGUAGUACGUAGGAUAUCAGAGAUCAGUUAGUGAGAUCGAGUGAUGUUCGAUCAUGUGUUCAUUUUGAGAAGGAUGUAGUAGGA [KL-SSFMN-B6] | 302

Sequence | apparent KD of K4 kissing-loop reporter [nM]
UGUAUGUGAUUUGAUACCAGACCAGCUGGUGGAAUCUGAGUGAUGUUCAGGUAGGUUUGGGUCCCUUGGCAGCAAAUCGCAUACU [KL-SSTheoB27] | 203
UCUUUAGUAUAUGAUACCAGCAGUGAGAGACAGGAAGUAUAGUGAUGUUAUAUGAGAGAAUGCCCUUGGCAGCGUGUGCGGUGGG [SSTheophylB.T] | 132
UGACUGGAUGGAAGGAGCGCUAAACUCCUAGUGAUGUUAGGGAUACGAGGCAAAGCCUCGAGGCAGGUAGGUCGCCAUCUAGUCU [FiskerMod 24 - Jieux - Same State - Arginine B] | 167
CAUUACGGUCGCUUACCAAACCACUACUUCCGAGGACCGGUACGGCCGCCACUCGCCAGUGAUGUUGGCUCGGGCGGCCGAUUAU [Orrebeante] | 117
UACACGACUCGUGUAAACCGAGGUAACAGGCAGGAUAUGUAACGGAACAGAAGGGCCAUGUUGCGUGUCCAGUGAUGUUGGAUGC [Vetedile] | 170
UAUACUAGACAAGAGAGAAUUCUCUCAAGAGAGGAUAUCCGAAUUCGGAGAAGGCUCGCUAAGUGAUGUUUGGAAUAGUCUAGAA [AK4 SS FMN A] | 418
GGUGCCGGGCAAGGAUAUUAGUCGAGUGAUGUUCGGCGGUCCAAGUCGUUGCGGCGUUAAACCCUUUGAGAAGGUGCCCGGUGCC [#2 Exclusion - FMN B Attempt #1 (HarryS)] | 198
CCGCCGGUCGGAAGGAGCGCACGCCAGAGUGAUGUUCUGGCGCAGGCAUUUAGUGCCCGCGUGCAGGUAGGUCGCCGAUUCUGGC [Arlaaa] | 341
UUUGGUUUCUCGGCCGCCACUCGUUGUCUAUCGGCUUCAGGGAUAUAGUGAUGUUAUGUAUAGAAGAGGACCGGGAGAAGGUUUU [ExTryptoB.Dw] | 467
AUUUUGGUUUAGAGUGAUGUUCCUUGUAUUCGAGGACCGGUACGGCCGCCACUCGGAUAGAAAAGAAAAGAAAUGUUUGAUUUUU [BDazzled - #8 SS Tryptophan A] | 339
CUGACGCUGAUACGGUGGCCGAUGGUCGUGCGAGGACCGGUACGGCCGCCACUCGCAUGAGUGAUGUUCAUGUGUCGUCGUCGUC [#06 K4 Tryptophan A Exclusion] | 135
AAAAUAACCCAGUGAUGUUGGUAUGCAGAUACCAGCGACGAAAGUCGCCCUUGGCAGCUGUGGACGUACAAAAUAAGUACGUCCU | 1230
UGACAUUGCUCAGAUACCAGACAUGAGCAUCAGCCAUGUGCCAAACGUACAAUAAUAAAUGUCCCUUGGCAGCUGAGCAAUGUCU [TheoBX 14] | 74.2
UUUGGUAUCUCGGCCGCCACUCGUGGGAAAUGGGCCUCAGGGAUAUAGUGAUGUUAUGUAAAGAAGAGGACCGGGAGAAGGAAGG [ExTryptoB.Dk] | 343
AGUGGACGUGUCUGGAGUGAUGUUCUGGAUACCAGACACGAAAGUGUCCCUUGGCAGCCGGAGUGAUGUUCCGGCGUUCACUAAA [Omei KL Theo A Exc B v5] | 462
AGAACUGUCUGAGAUACCAGCUAAGGAGUGAUGUUCCGGCUCGACGAAACGUCGAGCCAUAGCCCUUGGCAGCUCAGACAGUUCA [#27 K4 Theophylline B Same State] | 431

Same assay, conditions: Eterna round: R107; input ligand: arginine 13.2 mM

Sequence | apparent KD of K4 kissing-loop reporter [nM]
GCUAAGGAGUGAUGUUCCAAGUGAUGUUAACGAGGACCGGUACGGCCGCCACUCGAUACGGCCGGAAAGUAAGAUAAACUACAGC [Same State - Tryptophan A (Freestyle 5)] | 72.6
UGUGAUGAGUAGAGUGAUGUUUUGAAGGAUACCAGAGUGUUGUUAUUCCCUUGGCAGCUUGAGUGAUGUUUGAUGUUGUUGUAGU [zizmullin] | 213
CGAGUCCUGAGGAGUGAUGUUCCUCGGCCACGAGGACCGGUACGGCCGCCACUCGUUACUCGGGCUUAGCAGCAAGCACUAAGCU [Acesote] | 317
GUUACGCAUGGAAGGAGCGCACUCCGAUUGGUCGACACAGUGAUGUUGUGGUUCGUUCGAAUGCAGGUAGGUCGCCAUGUGUAAC [Ex Arginine B K4 18] | 143
UGGAGUUGACGAAAAGUCAACUCCCGAGAAGGAGCGGACGAAAGUCCAGGUAGGUCGCUCGCUACCAGUGAUGUUGGUACUCAAA | 182
UGUAAGCGCGUAGAUACCAGCAGACGAGUGAUGUUCAAAAGAUUAAGGAAAAGAAAGUAAUGCCCUUGGCAGCUAAUCAUAAGCG [whbob_Ex_Theo_B_sa92] | 460
AUAUGCUUAGCGGCCGCCACUCCAAUUGGCCGAAAGGCCUGAUACCGAGUGAUGUUCGGUUGGAGGAGGACCGGGCUAGGCGUAU [#2 Exclusion - Tryptophan B Attempt #1 (HarryS)] | 139
GGAUAGGACAGAGGAUAUGGUAGCUAGGCAAGAAUAACUUGUCUAGCAUCCAUGAGGAGUGAUGUUCCAGAAGGCUGUCCUAUCG [FmnBX 5 - #SwitchBubble #StaticStem] | 145
